# Results published in patent US20230158141A1 (YAFEI SHANGHAI BIOLOG MEDICINE SCIENCE AND TECHNOLOGY, published 2023).
# T1: IL-10R2-Fc/His (UniProt Q08334 20-220, limits assumed)
# T1 sequence (looked up): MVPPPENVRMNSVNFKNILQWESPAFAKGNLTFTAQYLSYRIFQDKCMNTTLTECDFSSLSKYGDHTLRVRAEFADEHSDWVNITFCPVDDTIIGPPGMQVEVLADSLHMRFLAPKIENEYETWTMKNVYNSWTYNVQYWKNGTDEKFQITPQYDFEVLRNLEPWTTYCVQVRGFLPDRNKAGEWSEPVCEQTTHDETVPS
# Molecular target: T1, IL-10R2-Fc/His
# Test: ELISA, IL-10R2-Fc/His coated
Binder,Decreased fold of binding to ligand after Conjugating with S48 [fold],Binding recovery (>60%) [%]
"IL-10 Asn92Cys-S48 (ligand, human, UniProt P22301 19-178, looked up, S48 on Cys 92, mature) SPGQGTQSENSCTHFPGNLPNMLRDLRDAFSRVKTFFQMKDQLDNLLLKESLLEDFKGYLGCQALSEMIQFYLEEVMPQAENQDPDIKAHVCSLGENLKTLRLRLRRCHRFLPCENKSKAVEQVKNAFNKLQEKGIYKAMSEFDIFINYIEAYMTMKIRN",3,
"IL-10 Leu103Cys-R4-6 (ligand, human, UniProt P22301 19-178, looked up, R4-6 on Cys 103, mature) SPGQGTQSENSCTHFPGNLPNMLRDLRDAFSRVKTFFQMKDQLDNLLLKESLLEDFKGYLGCQALSEMIQFYLEEVMPQAENQDPDIKAHVNSLGENLKTLRCRLRRCHRFLPCENKSKAVEQVKNAFNKLQEKGIYKAMSEFDIFINYIEAYMTMKIRN",,89.4
"IL-10 Asn126Cys-R4-18 (ligand, human, UniProt P22301 19-178, looked up, R4-18 on Cys 126, mature) SPGQGTQSENSCTHFPGNLPNMLRDLRDAFSRVKTFFQMKDQLDNLLLKESLLEDFKGYLGCQALSEMIQFYLEEVMPQAENQDPDIKAHVNSLGENLKTLRLRLRRCHRFLPCENKSKAVEQVKCAFNKLQEKGIYKAMSEFDIFINYIEAYMTMKIRN",,99
"IL-10 Glu122Cys-S48 (ligand, human, UniProt P22301 19-178, looked up, S48 on Cys 122, mature) SPGQGTQSENSCTHFPGNLPNMLRDLRDAFSRVKTFFQMKDQLDNLLLKESLLEDFKGYLGCQALSEMIQFYLEEVMPQAENQDPDIKAHVNSLGENLKTLRLRLRRCHRFLPCENKSKAVCQVKNAFNKLQEKGIYKAMSEFDIFINYIEAYMTMKIRN",3,
"IL-10 Glu96Cys-R4-12 (ligand, human, UniProt P22301 19-178, looked up, R4-12 on Cys 96, mature) SPGQGTQSENSCTHFPGNLPNMLRDLRDAFSRVKTFFQMKDQLDNLLLKESLLEDFKGYLGCQALSEMIQFYLEEVMPQAENQDPDIKAHVNSLGCNLKTLRLRLRRCHRFLPCENKSKAVEQVKNAFNKLQEKGIYKAMSEFDIFINYIEAYMTMKIRN",,98
"IL-10 Glu81Cys-R4-12 (ligand, human, UniProt P22301 19-178, looked up, R4-12 on Cys 81, mature) SPGQGTQSENSCTHFPGNLPNMLRDLRDAFSRVKTFFQMKDQLDNLLLKESLLEDFKGYLGCQALSEMIQFYLEEVMPQACNQDPDIKAHVNSLGENLKTLRLRLRRCHRFLPCENKSKAVEQVKNAFNKLQEKGIYKAMSEFDIFINYIEAYMTMKIRN",,93.6
"IL-10 Lys99Cys-R4-7 (ligand, human, UniProt P22301 19-178, looked up, R4-7 on Cys 99, mature) SPGQGTQSENSCTHFPGNLPNMLRDLRDAFSRVKTFFQMKDQLDNLLLKESLLEDFKGYLGCQALSEMIQFYLEEVMPQAENQDPDIKAHVNSLGENLCTLRLRLRRCHRFLPCENKSKAVEQVKNAFNKLQEKGIYKAMSEFDIFINYIEAYMTMKIRN",,117
"IL-10 Gln123Cys-S48 (ligand, human, UniProt P22301 19-178, looked up, S48 on Cys 123, mature) SPGQGTQSENSCTHFPGNLPNMLRDLRDAFSRVKTFFQMKDQLDNLLLKESLLEDFKGYLGCQALSEMIQFYLEEVMPQAENQDPDIKAHVNSLGENLKTLRLRLRRCHRFLPCENKSKAVECVKNAFNKLQEKGIYKAMSEFDIFINYIEAYMTMKIRN",3,
"IL-10 Glu81Cys-S48 (ligand, human, UniProt P22301 19-178, looked up, S48 on Cys 81, mature) SPGQGTQSENSCTHFPGNLPNMLRDLRDAFSRVKTFFQMKDQLDNLLLKESLLEDFKGYLGCQALSEMIQFYLEEVMPQACNQDPDIKAHVNSLGENLKTLRLRLRRCHRFLPCENKSKAVEQVKNAFNKLQEKGIYKAMSEFDIFINYIEAYMTMKIRN",3,
"IL-10 Glu96Cys-S48 (ligand, human, UniProt P22301 19-178, looked up, S48 on Cys 96, mature) SPGQGTQSENSCTHFPGNLPNMLRDLRDAFSRVKTFFQMKDQLDNLLLKESLLEDFKGYLGCQALSEMIQFYLEEVMPQAENQDPDIKAHVNSLGCNLKTLRLRLRRCHRFLPCENKSKAVEQVKNAFNKLQEKGIYKAMSEFDIFINYIEAYMTMKIRN",3,
"IL-10 Glu122Cys-R4-12 (ligand, human, UniProt P22301 19-178, looked up, R4-12 on Cys 122, mature) SPGQGTQSENSCTHFPGNLPNMLRDLRDAFSRVKTFFQMKDQLDNLLLKESLLEDFKGYLGCQALSEMIQFYLEEVMPQAENQDPDIKAHVNSLGENLKTLRLRLRRCHRFLPCENKSKAVCQVKNAFNKLQEKGIYKAMSEFDIFINYIEAYMTMKIRN",,99.8
"IL-10 Leu101Cys-S48 (ligand, human, UniProt P22301 19-178, looked up, S48 on Cys 101, mature) SPGQGTQSENSCTHFPGNLPNMLRDLRDAFSRVKTFFQMKDQLDNLLLKESLLEDFKGYLGCQALSEMIQFYLEEVMPQAENQDPDIKAHVNSLGENLKTCRLRLRRCHRFLPCENKSKAVEQVKNAFNKLQEKGIYKAMSEFDIFINYIEAYMTMKIRN",3,
"IL-10 Phe36Cys-R4-8 (ligand, human, UniProt P22301 19-178, looked up, R4-8 on Cys 36, mature) SPGQGTQSENSCTHFPGNLPNMLRDLRDAFSRVKTCFQMKDQLDNLLLKESLLEDFKGYLGCQALSEMIQFYLEEVMPQAENQDPDIKAHVNSLGENLKTLRLRLRRCHRFLPCENKSKAVEQVKNAFNKLQEKGIYKAMSEFDIFINYIEAYMTMKIRN",,79.6
"IL-10 Lys99Cys-S48 (ligand, human, UniProt P22301 19-178, looked up, S48 on Cys 99, mature) SPGQGTQSENSCTHFPGNLPNMLRDLRDAFSRVKTFFQMKDQLDNLLLKESLLEDFKGYLGCQALSEMIQFYLEEVMPQAENQDPDIKAHVNSLGENLCTLRLRLRRCHRFLPCENKSKAVEQVKNAFNKLQEKGIYKAMSEFDIFINYIEAYMTMKIRN",3,
"IL-10 Gln123Cys-R4-19 (ligand, human, UniProt P22301 19-178, looked up, R4-19 on Cys 123, mature) SPGQGTQSENSCTHFPGNLPNMLRDLRDAFSRVKTFFQMKDQLDNLLLKESLLEDFKGYLGCQALSEMIQFYLEEVMPQAENQDPDIKAHVNSLGENLKTLRLRLRRCHRFLPCENKSKAVECVKNAFNKLQEKGIYKAMSEFDIFINYIEAYMTMKIRN",,96.5
"IL-10 Asn126Cys-S48 (ligand, human, UniProt P22301 19-178, looked up, S48 on Cys 126, mature) SPGQGTQSENSCTHFPGNLPNMLRDLRDAFSRVKTFFQMKDQLDNLLLKESLLEDFKGYLGCQALSEMIQFYLEEVMPQAENQDPDIKAHVNSLGENLKTLRLRLRRCHRFLPCENKSKAVEQVKCAFNKLQEKGIYKAMSEFDIFINYIEAYMTMKIRN",3,
"IL-10 Ile87Cys-R4-6 (ligand, human, UniProt P22301 19-178, looked up, R4-6 on Cys 87, mature) SPGQGTQSENSCTHFPGNLPNMLRDLRDAFSRVKTFFQMKDQLDNLLLKESLLEDFKGYLGCQALSEMIQFYLEEVMPQAENQDPDCKAHVNSLGENLKTLRLRLRRCHRFLPCENKSKAVEQVKNAFNKLQEKGIYKAMSEFDIFINYIEAYMTMKIRN",,95.7
"IL-10 Leu101Cys-R4-6 (ligand, human, UniProt P22301 19-178, looked up, R4-6 on Cys 101, mature) SPGQGTQSENSCTHFPGNLPNMLRDLRDAFSRVKTFFQMKDQLDNLLLKESLLEDFKGYLGCQALSEMIQFYLEEVMPQAENQDPDIKAHVNSLGENLKTCRLRLRRCHRFLPCENKSKAVEQVKNAFNKLQEKGIYKAMSEFDIFINYIEAYMTMKIRN",,91
"IL-10 Lys88Cys-S48 (ligand, human, UniProt P22301 19-178, looked up, S48 on Cys 88, mature) SPGQGTQSENSCTHFPGNLPNMLRDLRDAFSRVKTFFQMKDQLDNLLLKESLLEDFKGYLGCQALSEMIQFYLEEVMPQAENQDPDICAHVNSLGENLKTLRLRLRRCHRFLPCENKSKAVEQVKNAFNKLQEKGIYKAMSEFDIFINYIEAYMTMKIRN",3,
"IL-10 Asp25Cys-R4-11 (ligand, human, UniProt P22301 19-178, looked up, R4-11 on Cys 25, mature) SPGQGTQSENSCTHFPGNLPNMLRCLRDAFSRVKTFFQMKDQLDNLLLKESLLEDFKGYLGCQALSEMIQFYLEEVMPQAENQDPDIKAHVNSLGENLKTLRLRLRRCHRFLPCENKSKAVEQVKNAFNKLQEKGIYKAMSEFDIFINYIEAYMTMKIRN",,91.5
"IL-10 Asp86Cys-R4-11 (ligand, human, UniProt P22301 19-178, looked up, R4-11 on Cys 86, mature) SPGQGTQSENSCTHFPGNLPNMLRDLRDAFSRVKTFFQMKDQLDNLLLKESLLEDFKGYLGCQALSEMIQFYLEEVMPQAENQDPCIKAHVNSLGENLKTLRLRLRRCHRFLPCENKSKAVEQVKNAFNKLQEKGIYKAMSEFDIFINYIEAYMTMKIRN",,81
"IL-10 Ile87Cys-S48 (ligand, human, UniProt P22301 19-178, looked up, S48 on Cys 87, mature) SPGQGTQSENSCTHFPGNLPNMLRDLRDAFSRVKTFFQMKDQLDNLLLKESLLEDFKGYLGCQALSEMIQFYLEEVMPQAENQDPDCKAHVNSLGENLKTLRLRLRRCHRFLPCENKSKAVEQVKNAFNKLQEKGIYKAMSEFDIFINYIEAYMTMKIRN",4,
"IL-10 Leu103Cys-S48 (ligand, human, UniProt P22301 19-178, looked up, S48 on Cys 103, mature) SPGQGTQSENSCTHFPGNLPNMLRDLRDAFSRVKTFFQMKDQLDNLLLKESLLEDFKGYLGCQALSEMIQFYLEEVMPQAENQDPDIKAHVNSLGENLKTLRCRLRRCHRFLPCENKSKAVEQVKNAFNKLQEKGIYKAMSEFDIFINYIEAYMTMKIRN",3,
"IL-10 Asp86Cys-S48 (ligand, human, UniProt P22301 19-178, looked up, S48 on Cys 86, mature) SPGQGTQSENSCTHFPGNLPNMLRDLRDAFSRVKTFFQMKDQLDNLLLKESLLEDFKGYLGCQALSEMIQFYLEEVMPQAENQDPCIKAHVNSLGENLKTLRLRLRRCHRFLPCENKSKAVEQVKNAFNKLQEKGIYKAMSEFDIFINYIEAYMTMKIRN",3,
"IL-10 Lys88Cys-R4-7 (ligand, human, UniProt P22301 19-178, looked up, R4-7 on Cys 88, mature) SPGQGTQSENSCTHFPGNLPNMLRDLRDAFSRVKTFFQMKDQLDNLLLKESLLEDFKGYLGCQALSEMIQFYLEEVMPQAENQDPDICAHVNSLGENLKTLRLRLRRCHRFLPCENKSKAVEQVKNAFNKLQEKGIYKAMSEFDIFINYIEAYMTMKIRN",,99
